28 substances from US20030139571A1 can be followed below.

pIC50: −log10 of the molar value. Several values for one entry are separate records, joined by “and”; a condition that tells them apart may be missing. Equal values may be shown once.

Assay [1] concerns the target biotinylated CCR5 Nt sulfopeptide 2-18.
Assay [2] addresses CCR5 on L1.2-CCR5+ cells (Homo sapiens (Human)) (UniProt P51681).
Assay [3] addresses CD4-IgG2.
In assay [4] the target is biotinylated CCR5 Nt sulfopeptide 2-18. The experiment in a line: peptide ELISA, gp120/CD4-IgG2 complexes.
The target is the same in assay [5]. The experiment in a line: direct ELISA, biotinylated peptide on streptavidin plate, complex titrated (CD4-IgG2 concentration), anti-human IgG-HRP.
The target of assay [6] is gp120JR-FL/CD4-IgG2 complex (HIV-1 JR-FL).
For assay [7], the target named is gp120DH123/CD4-IgG2 complex (HIV-1 DH123). The experiment in a line: SPR, complex 50 nM over immobilised sulfopeptide 2-18 with MAb (150 mM [sic]). In general terms: SPR reads the build-up and loss of mass on a sensor chip optically.
Assay [8] deals with gp120JR-FL (HIV-1 JR-FL) (UniProt P20871). Briefly: cell-based or functional assay.
Assay [9] has as its target CCR5 on L1.2-CCR5+ cells (Homo sapiens (Human)) (UniProt P51681). This is another data set of the same source.
Assay [10] has as its target biotinylated CCR5 Nt sulfopeptide 10-15. Briefly: ELISA, biotinylated peptide on streptavidin plate, anti-human IgG-HRP. Background: An ELISA detects its analyte on a solid surface through an enzyme-linked reagent.
The target of assay [11] is biotinylated CCR5 Nt sulfopeptide 10-18. The description is as above.
Assay [12] has as its target biotinylated CCR5 Nt sulfopeptide 6-16. The assay is described as above.
Assay [13] has as its target biotinylated CCR5 Nt sulfopeptide 8-15. The description is as above.

As for gp120JR-FL K421A/CD4-IgG2 complex, the fold decrease in binding vs wild-type gp120JR-FL in assay [1] was 5 fold and 10 fold.
On to gp120JR-FL R313A/CD4-IgG2 complex, for which the fold decrease in binding vs wild-type gp120JR-FL in assay [2] was 5 fold and 10 fold.
In [1], gp120JR-FL D324A/CD4-IgG2 complex registered a fold decrease in binding vs wild-type gp120JR-FL greater than 10 fold.
Turning to “gp120JR-FL R440A (from UniProt P20871 32-503)”, the fold lower avidity than wild type in [3] was 5 fold and 10 fold.
With “gp120JR-FL R469A (from UniProt P20871 32-503)”, the fold lower avidity than wild type in [3] was 5 fold and 10 fold.
For the substance gp120JR-FL G310A/CD4-IgG2 complex, the fold decrease in binding vs wild-type gp120JR-FL in assay [2] is 10 fold and 5 fold.
What is called pIC50 is −log10 of the IC50, conventionally taken in molar units. On to gp120DH123/CD4-IgG2 complex, for which the fold less binding than gp120JR-FL in assay [4] came to 5 fold. Also, the pIC50 in assay [5] was 8.30.
For gp120JR-FL Q422A/CD4-IgG2 complex, the fold decrease in binding vs wild-type gp120JR-FL in [1] is 5 fold and 10 fold.
In the case of anti-V3 loop MAb 19b (antibody), the % inhibition of complex binding to sulfopeptide 2-18 was greater than 90% in [6] and 80% in assay [7].
gp120JR-FL R326A/CD4-IgG2 complex showed a fold decrease in binding vs wild-type gp120JR-FL in [1] greater than 10 fold.
Turning to gp120JR-FL Y316A/CD4-IgG2 complex, the fold decrease in binding vs wild-type gp120JR-FL in assay [2] is 5 fold and 10 fold.
CCR5 Nt peptide S-3/10/14 came in with an inhibition of entry of Nlluc+env- particles pseudotyped with HIV-1JR-FL envelope (luciferase; HeLa-CD4+CCR5+ and U87MG-CD4+CCR5+ cells; peptide 100 µM) in assay [8] of 50%.
In the case of gp120JR-FL P311A/CD4-IgG2 complex, the fold decrease in binding vs wild-type gp120JR-FL in [2] is 5 fold and 10 fold.
Regarding anti-gp120 MAb 48d (antibody), the % inhibition of complex binding to sulfopeptide 2-18 in [6] and in [7] was greater than 90% in each case.
On to gp120JR-FL R419A/CD4-IgG2 complex, for which the fold decrease in binding vs wild-type gp120JR-FL in [1] is 5 fold and 10 fold.
gp120JR-FL R298A/CD4-IgG2 complex: the fold decrease in binding vs wild-type gp120JR-FL in assay [1] is greater than 10 fold.
Turning to gp120JR-FL R444A/CD4-IgG2 complex, the fold decrease in binding vs wild-type gp120JR-FL in [1] is 5 fold and 10 fold.
Still for that read-out and setting: to gp120JR-FL N301A/CD4-IgG2 complex belongs greater than 10 fold; to gp120JR-FL I322A/CD4-IgG2 complex, greater than 10 fold.
Regarding gp120JR-FL S306A/CD4-IgG2 complex, the fold decrease in binding vs wild-type gp120JR-FL in [2] is 5 fold and 10 fold.
Take gp120JR-FL I325A/CD4-IgG2 complex: in assay [1], the fold decrease in binding vs wild-type gp120JR-FL is greater than 10 fold.
Turning to “gp120JR-FL W427A (from UniProt P20871 32-503)”, the fold lower avidity than wild type in assay [3] is 5 fold and 10 fold.
In turn, gp120JR-FL/CD4-IgG2 complex came in with a m.f.i. in assay [9] of 40 m.f.i. For the same substance, the fold less avid than for sulfopeptide 2-18 in assay [10], in assay [12] and in assay [13] was greater than 10 fold in each case. The same substance displayed a fold lower avidity than for sulfopeptide 2-18 in assay [11] of 3 fold. The same substance showed a pIC50 in [5] of 9.00.
In the case of gp120JR-FL T303A/CD4-IgG2 complex, the fold decrease in binding vs wild-type gp120JR-FL in assay [1] was greater than 10 fold.
Same read-out and setting: to gp120JR-FL I420A/CD4-IgG2 complex belongs 5 fold and 10 fold.
anti-gp120 MAb 17b (antibody): the % inhibition of complex binding to sulfopeptide 2-18 in assay [6] and in assay [7] was greater than 90% each time.
Take gp120JR-FL F315A/CD4-IgG2 complex: the fold decrease in binding vs wild-type gp120JR-FL in assay [2] is 5 fold and 10 fold.
In the case of CCR5 Nt peptide S-10/14, the inhibition of entry of Nlluc+env- particles pseudotyped with HIV-1JR-FL envelope (luciferase; HeLa-CD4+CCR5+ and U87MG-CD4+CCR5+ cells; peptide 100 µM) in assay [8] stood at 50%.
